In patent US20250108100A1, “C-TERMINAL FRAGMENT OF APOLIPOPROTEIN E AND APPLICATION THEREOF IN INHIBITING y-SECRETASE ACTIVITY” (SYNPHATEC (SHANGHAI) BIOPHARMACEUTICAL TECHNOLOGY CO., LTD., priority 2022, published 2025):
Entries after “also recorded” stand apart in the source; their conditions may differ.

What was measured:
[1] = tested on: human pluripotent stem cell-induced neurons; experiment: Endogenous Aβ40 in human pluripotent stem cell-induced neurons (lentivirus, ELISA); assay type: cell-based
Procedure: • a) Construction of lentivirus expression plasmids, lentivirus-GFP and lentivirus-ApoE CT, which can be specifically expressed in neurons. • b) The lentivirus vectors were cotransfected with coat protein vectors (PSPAX2 and PMD2G) in HEK 293T cell line. Cells were subcultured one day before transfection, and transfection was performed when the degree of cell adhesion reached 70%-80%. The transfection reagent was Polyjet (SignaGen). • c) 36-48 hours after the transfection, the cell culture was collected and filtered through a 0.22 μm filter membrane. • d) The filtered cell culture solution was ultracentrifuged. Centrifuged at 20000 rpm, 4° C. for 2 hours and 5 minutes. • e) After centrifugation, the supernatant was removed, and the precipitation of every three precipitates of 10 cm cell culture medium was resuspended with 50 μl of PBS. • f) The resuspended virus was subpackaged and stored in a −80° C. refrigerator for subsequent experiments.
48 hours after transfection of HEK 293T cells and N2A cells, or 4.5 days after lentivirus infection of neurons, media and lysates were collected. Aβ40 and Aβ42 in the culture medium and cell lysates were detected by an Aβ ELISA kit as indicated in the protocol. (Invitrogen Technology; KHB3481 for human Aβ40, KHB3441 for human Aβ42 and KMB3481 for mouse Aβ40).

[2] = tested on: ADAM10, BACE1, PS1 and PS2; experiment: mRNA (qRT-PCR) and protein (Western blot) expression of APP secretases in HEK 293T cells; assay type: cell-based, human
Procedure: • a) A plasmid expressing the target protein in mammalian cells was constructed, and the protein expression promoter is CAG. • b) The target protein was expressed in HEK 293T cell line. Cells were subcultured one day before transfection, and transfection was performed when the degree of cell adhesion reached 70%-80%. The transfection reagent was lipofectamine2000 (ThermoFisher). • c) 4-6 hours post transfection, the medium were replaced with fresh cell culture medium. • d) 36-48 hours post transfection, the cells were lysed (10% 1M tris-HCl (pH=6.8), 4% SDS, 20% glycerol, 0.01% bromophenol blue), and the protein samples were collected and used for Western blot or stored in a −80° C. freezer. • e) Polyacrylamide gel electrophoresis. Before protein loading, the protein was boiled at 98° C. for 10 min, and then centrifuged at 12000 rpm for 10 min. Electrophoresis: 80V for the upper stacking gel; 120V for the lower separating gel. • f) Protein transfer. The filter paper was soaked in the electrophoresis solution before use, and the PVDF membrane was put in methanol for 10s to activate, and the gel after electrophoresis was taken out from the electrophoresis tank, put in the order of filter paper—PVD membrane—gel-filter paper from bottom to top, and they were put into the transfer instrument, with transferring in constant current at 0.1 A for 70 min. • g) Blocking and antibody incubation: the transferred PVDF membrane was placed in 5% BSA/TBST blocking solution, and blocked on a shaker at room temperature for 1 hour. The primary antibody was used to incubate at 4° C. overnight on a shaker (12-16 h); 1×TBST was used to wash three times, once every 10 minutes; the secondary antibody was used to incubate, shaked at room temperature for 1-2 h; 1×TBST was used to wash three times, once every 10 minutes. • h) Imaging by development: development was performed with ECL chemiluminescence hypersensitive chromogenic reagent. […]
Quantitect SYBR-Green qRT-PCR kit from Qiagen was used to quantitatively analyze the relative content of mRNA. qRT-PCR primers were listed in Table 2. […]

B1: ApoE CT: C-terminal fragment of ApoE, positions 216-299 of SEQ ID NO: 12; SEQ ID NO: 33 (protein)
chain: ARMEEMGSRTRDRLDEVKEQVAEVRAKLEEQAQQIRLQAEAFQARLKSWFEPLVEDMQRQWAGLVEKVQAAVGTSAAPVPSDNH
reduction in Aβ40 production ([1]; hiPSC-induced neurons, lentiviral infection): approximately 46% | endogenous Aβ40 ([1]; human neurons from pluripotent stem cell line, lentivirus): also reduces endogenous Aβ40 | endogenous production of Aβ40 ([1]; human pluripotent stem cell-induced neurons): about 54 % of controls | protein expression of APP metabolizing enzymes ([2]; Western blot): does not affect the protein expression | mRNA expression of APP metabolizing enzymes ([2]; qRT-PCR): does not affect the mRNA expression | mRNA and protein expression of ADAM10, BACE1, PS1 and PS2 ([2]; qRT-PCR and Western blot, vs GFP control): does not change the mRNA and protein expression; also recorded: not altered
